Source: patent US12534534 (F STAR BETA, dated 2026)
Substitutions are numbered along the chain they refer to.

B1: G1AA/FS30-6 (antibody, human IgG1, kappa, L234A L235A, V domains shown)
VH: EVQLLESGGGLVQPGGSLRLSCAASGFTVSYYSISWVRQAPGKGLEWVSDIYSYYGYTDYADSVKGRFTISRDNSKNTLYLQMNSLRAEDTAVYYCARVSYGGQAFDYWGQGTLVTVSS
VL: EIVLTQSPGTLSLSPGERATLSCRASQSVSSSYLAWYQQKPGQAPRLLIYGASSRATGIPDRFSGSGSGTDFTLTISRLEPEDFAVYYCQQYDDYPVTFGQGTKVEIKR
B2: FS20-22-49AA/FS30-5 variant, Methionine (100D) to I (bispecific antibody, V domains shown)
VH: EVQLLESGGGLVQPGGSLRLNCAASGFTFSSYAMSWVRQAPGKGLEWVSAISGSGGSTYYADSVKGRFTISRDNSKNTLYLQMNSLRAEDTAVYYCARSYDKYWGSSIYSGMDYWGQGTLVTVSS
VL: EIVLTQSPGTLSLSPGERATLSCRASQSVSSSYLAWYQQKPGQAPRLLIYGASSRATGIPDRFSGSGSGTDFTLTISRLEPEDFAVYYCQQYYSYYPVTFGQGTKVEIKR
B3: FS20-22-49AA/FS30-35 variant, Methionine (100F) to H (bispecific antibody, V domains shown)
VH: EVQLLESGGGLVQPGGSLRLSCAASGFTFSAYNIHWVRQAPGKGLEWVSDISPYGGATNYADSVKGRFTISRDNSKNTLYLQMNSLRAEDTAVYYCARNLYELSAYSYGHDYWGQGTLVTVSS
VL: B2 VL with S94Y, Y95S, Y96S, V98I

What was measured:
[1] = target: human CD137 on primary human CD8+ T cells (human, UniProt Q07011 24-255); assay: cell-based or functional assay
[2] = target: human CD137 on DO11.10-hCD137 cells (human, UniProt Q07011 24-255); assay: cell-based or functional assay
human CD137 on DO11.10-hCD137 cells, sequence (Q07011 24-255): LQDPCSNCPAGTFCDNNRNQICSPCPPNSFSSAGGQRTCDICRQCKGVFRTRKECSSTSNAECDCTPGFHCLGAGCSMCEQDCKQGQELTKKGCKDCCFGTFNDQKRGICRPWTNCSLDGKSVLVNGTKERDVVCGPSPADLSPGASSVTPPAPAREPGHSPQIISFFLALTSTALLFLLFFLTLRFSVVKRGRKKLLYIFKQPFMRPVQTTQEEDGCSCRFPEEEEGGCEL

human CD137 on primary human CD8+ T cells, sequence (Q07011 24-255): as above

Binder | Activity of non-crosslinked mAbs at 100 nM (hIL-2 pg/ml) [1] [pg/mL] | EC50 (nM), hIL-2 release, primary human CD8+ T cell activation assay, crosslinked mAb [1] [nM] | Emax (hIL-2 pg/ml), crosslinked mAb [1] [pg/mL] | DO11.10-hCD137 T cell activation assay EC50 (nM), crosslinked [2] [nM]
B1 | 532 | 1 | 1510 | –
B2 | – | – | – | 4.4
B3 | – | – | – | 9.5
